Patent publication US20180030151A1 (MOGAM INSTITUTE FOR BIOMEDICAL RESEARCH, published 2018)
Positions count from the first letter of the chain named. Like-named read-outs stand apart in the source and are kept apart here.

Assays:
Assay in all cases: cell-based or functional assay
[1] = molecular target: T1, recombinant human TFPI (tissue factor pathway inhibitor) (human, UniProt P10646 29-304)
[2] = molecular target: T1, recombinant human TFPI (tissue factor …); remark: listed apart in the source
[3] = molecular target: T1, recombinant human TFPI (tissue factor …); remark: listed apart in the source
[4] = molecular target: T1, recombinant human TFPI (tissue factor …); remark: listed apart in the source
[5] = molecular target: T1, recombinant human TFPI (tissue factor …); remark: listed apart in the source
[6] = molecular target: T1, recombinant human TFPI (tissue factor …); remark: listed apart in the source
[7] = molecular target: T1, recombinant human TFPI (tissue factor …); remark: listed apart in the source
[8] = molecular target: T1, recombinant human TFPI (tissue factor …); remark: listed apart in the source
[9] = molecular target: T1, recombinant human TFPI (tissue factor …); remark: listed apart in the source
[10] = molecular target: T1, recombinant human TFPI (tissue factor …); remark: listed apart in the source
[11] = molecular target: T1, recombinant human TFPI (tissue factor …); remark: listed apart in the source

B1: clone 1015 (antibody, V domains shown)
VH: EVQLVESGGGLVKPGGSLRLSCAASGFTFSSYAMNWVRQAPGKGLEWVSTITTGGSHTYYADSVEGRFTISRDNAKNSLYLQMNSLRAEDTAVYYCARQDGNFLMDYWGQGTLVTVSS
VL: DVVMTQTPLSLPVTLGQPASISCKSSQSLLDIDGKTYLNWLQQRPGQSPKRLIYLVSKLDSGVPDRFTGSGSGTDFTLKISRVEAEDVGVYYCWQGTHFPFTFGQGTKVEIKR
effect of inhibiting TFPI, FXa activity assay, Ab 10 nM [1]: ~71% | effect of inhibiting TFPI, FXa activity assay, Ab 20 nM [1]: ~83% | A405, TF/FVIIa/FX complex assay, Ab 1.56 nM [2]: 0.141 | A405, TF/FVIIa/FX complex assay, Ab 3.13 nM [2]: 0.148 | A405, TF/FVIIa/FX complex assay, Ab 6.25 nM [2]: 0.158 | A405, TF/FVIIa/FX complex assay, Ab 12.5 nM [2]: 0.179 | A405, TF/FVIIa/FX complex assay, Ab 25 nM [2]: 0.269 | A405, TF/FVIIa/FX complex assay, Ab 50 nM [2]: 0.919 | A405, TF/FVIIa/FX complex assay, Ab 100 nM [2]: 0.944 | % of Normalized, TF/FVIIa/FX complex assay, Ab 1.56 nM [3]: 15.4% | % of Normalized, TF/FVIIa/FX complex assay, Ab 3.13 nM [3]: 16.1% | % of Normalized, TF/FVIIa/FX complex assay, Ab 6.25 nM [3]: 17.2% | % of Normalized, TF/FVIIa/FX complex assay, Ab 12.5 nM [3]: 19.4% | % of Normalized, TF/FVIIa/FX complex assay, Ab 25 nM [3]: 29.3% | % of Normalized, TF/FVIIa/FX complex assay, Ab 50 nM [3]: 100% | % of Normalized, TF/FVIIa/FX complex assay, Ab 100 nM [3]: 103% | FXa assay % of FXa alone, 2.5 nM Ab, 10 nM TFPI [4]: 6.5% | FXa assay % of FXa alone, 5 nM Ab, 10 nM TFPI [4]: 14% | FXa assay OD, 2.5 nM Ab, 10 nM TFPI [4]: 0.0465 | FXa assay OD, 5 nM Ab, 10 nM TFPI [4]: 0.101 | FXa assay OD, 10 nM Ab, 10 nM TFPI [4]: 0.512 | FXa assay OD, 20 nM Ab, 10 nM TFPI [4]: 0.594

B2: clone 1123 (antibody, V domains shown)
VH: B1 VH with N102H
VL: B1 VL
effect of inhibiting TFPI, FXa activity assay, Ab 10 nM [1]: ~69% | effect of inhibiting TFPI, FXa activity assay, Ab 20 nM [1]: ~88% | A405, TF/FVIIa/FX complex assay, Ab 1.56 nM [5]: 0.14 | A405, TF/FVIIa/FX complex assay, Ab 3.13 nM [5]: 0.151 | A405, TF/FVIIa/FX complex assay, Ab 6.25 nM [5]: 0.15 | A405, TF/FVIIa/FX complex assay, Ab 12.5 nM [5]: 0.157 | A405, TF/FVIIa/FX complex assay, Ab 25 nM [5]: 0.272 | A405, TF/FVIIa/FX complex assay, Ab 50 nM [5]: 0.77 | A405, TF/FVIIa/FX complex assay, Ab 100 nM [5]: 0.905 | % of Normalized, TF/FVIIa/FX complex assay, Ab 1.56 nM [6]: 14.7% | % of Normalized, TF/FVIIa/FX complex assay, Ab 3.13 nM [6]: 15.8% | % of Normalized, TF/FVIIa/FX complex assay, Ab 6.25 nM [6]: 15.7% | % of Normalized, TF/FVIIa/FX complex assay, Ab 12.5 nM [6]: 16.4% | % of Normalized, TF/FVIIa/FX complex assay, Ab 25 nM [6]: 28.5% | % of Normalized, TF/FVIIa/FX complex assay, Ab 50 nM [6]: 80.7% | % of Normalized, TF/FVIIa/FX complex assay, Ab 100 nM [6]: 94.8% | FXa assay % of FXa alone, 2.5 nM Ab, 10 nM TFPI [7]: 6.5% | FXa assay % of FXa alone, 5 nM Ab, 10 nM TFPI [7]: 14.7% | FXa assay OD, 2.5 nM Ab, 10 nM TFPI [7]: 0.0315 | FXa assay OD, 5 nM Ab, 10 nM TFPI [7]: 0.071 | FXa assay OD, 10 nM Ab, 10 nM TFPI [7]: 0.332 | FXa assay OD, 20 nM Ab, 10 nM TFPI [7]: 0.424

B3: clone A67 (antibody, V domains shown)
VH: B1 VH with H57Y
VL: B1 VL with I32L
effect of inhibiting TFPI, FXa activity assay, Ab 10 nM [1]: ~67% | effect of inhibiting TFPI, FXa activity assay, Ab 20 nM [1]: ~79% | A405, TF/FVIIa/FX complex assay, Ab 1.56 nM [5]: 0.154 | A405, TF/FVIIa/FX complex assay, Ab 3.13 nM [5]: 0.177 | A405, TF/FVIIa/FX complex assay, Ab 6.25 nM [5]: 0.196 | A405, TF/FVIIa/FX complex assay, Ab 12.5 nM [5]: 0.29 | A405, TF/FVIIa/FX complex assay, Ab 25 nM [5]: 0.914 | A405, TF/FVIIa/FX complex assay, Ab 50 nM [5]: 0.895 | A405, TF/FVIIa/FX complex assay, Ab 100 nM [5]: 0.907 | % of Normalized, TF/FVIIa/FX complex assay, Ab 1.56 nM [6]: 16.1% | % of Normalized, TF/FVIIa/FX complex assay, Ab 3.13 nM [6]: 18.5% | % of Normalized, TF/FVIIa/FX complex assay, Ab 6.25 nM [6]: 20.5% | % of Normalized, TF/FVIIa/FX complex assay, Ab 12.5 nM [6]: 30.3% | % of Normalized, TF/FVIIa/FX complex assay, Ab 25 nM [6]: 95.8% | % of Normalized, TF/FVIIa/FX complex assay, Ab 50 nM [6]: 93.7% | % of Normalized, TF/FVIIa/FX complex assay, Ab 100 nM [6]: 95% | A405, TF/FVIIa/FX complex assay, Ab 1.56 nM [8]: 0.149 | A405, TF/FVIIa/FX complex assay, Ab 3.13 nM [8]: 0.172 | A405, TF/FVIIa/FX complex assay, Ab 6.25 nM [8]: 0.195 | A405, TF/FVIIa/FX complex assay, Ab 12.5 nM [8]: 0.33 | A405, TF/FVIIa/FX complex assay, Ab 25 nM [8]: 0.908 | A405, TF/FVIIa/FX complex assay, Ab 50 nM [8]: 0.938 | A405, TF/FVIIa/FX complex assay, Ab 100 nM [8]: 0.947 | % of Normalized, TF/FVIIa/FX complex assay, Ab 1.56 nM [9]: 16.3% | % of Normalized, TF/FVIIa/FX complex assay, Ab 3.13 nM [9]: 18.7% | % of Normalized, TF/FVIIa/FX complex assay, Ab 6.25 nM [9]: 21.3% | % of Normalized, TF/FVIIa/FX complex assay, Ab 12.5 nM [9]: 36.1% | % of Normalized, TF/FVIIa/FX complex assay, Ab 25 nM [9]: 99.2% | % of Normalized, TF/FVIIa/FX complex assay, Ab 50 nM [9]: 102% | % of Normalized, TF/FVIIa/FX complex assay, Ab 100 nM [9]: 104% | FXa assay % of FXa alone, 2.5 nM Ab, 10 nM TFPI [10]: 9.2% | FXa assay % of FXa alone, 5 nM Ab, 10 nM TFPI [10]: 41.9% | FXa assay OD, 2.5 nM Ab, 10 nM TFPI [10]: 0.0745 | FXa assay OD, 5 nM Ab, 10 nM TFPI [10]: 0.338 | FXa assay OD, 10 nM Ab, 10 nM TFPI [10]: 0.543 | FXa assay OD, 20 nM Ab, 10 nM TFPI [10]: 0.637 | FXa assay % of FXa alone, 2.5 nM Ab, 10 nM TFPI [11]: 8% | FXa assay % of FXa alone, 5 nM Ab, 10 nM TFPI [11]: 28.8% | FXa assay % of FXa alone, 10 nM Ab, 10 nM TFPI [11]: 63.5% | FXa assay % of FXa alone, 20 nM Ab, 10 nM TFPI [11]: 75.8% | FXa assay OD, 2.5 nM Ab, 10 nM TFPI [11]: 0.065 | FXa assay OD, 5 nM Ab, 10 nM TFPI [11]: 0.234 | FXa assay OD, 10 nM Ab, 10 nM TFPI [11]: 0.516 | FXa assay OD, 20 nM Ab, 10 nM TFPI [11]: 0.616

B4: clone 3203 (antibody, V domains shown)
VH: B1 VH with N35S, H57Y
VL: B1 VL with I32L
A405, TF/FVIIa/FX complex assay, Ab 1.56 nM [8]: 0.147 | A405, TF/FVIIa/FX complex assay, Ab 3.13 nM [8]: 0.162 | A405, TF/FVIIa/FX complex assay, Ab 6.25 nM [8]: 0.173 | A405, TF/FVIIa/FX complex assay, Ab 12.5 nM [8]: 0.208 | A405, TF/FVIIa/FX complex assay, Ab 25 nM [8]: 0.424 | A405, TF/FVIIa/FX complex assay, Ab 50 nM [8]: 0.934 | A405, TF/FVIIa/FX complex assay, Ab 100 nM [8]: 0.932 | % of Normalized, TF/FVIIa/FX complex assay, Ab 1.56 nM [9]: 16.1% | % of Normalized, TF/FVIIa/FX complex assay, Ab 3.13 nM [9]: 17.7% | % of Normalized, TF/FVIIa/FX complex assay, Ab 6.25 nM [9]: 18.9% | % of Normalized, TF/FVIIa/FX complex assay, Ab 12.5 nM [9]: 22.7% | % of Normalized, TF/FVIIa/FX complex assay, Ab 25 nM [9]: 46.3% | % of Normalized, TF/FVIIa/FX complex assay, Ab 50 nM [9]: 102% | % of Normalized, TF/FVIIa/FX complex assay, Ab 100 nM [9]: 102% | FXa assay % of FXa alone, 2.5 nM Ab, 10 nM TFPI [11]: 6.2% | FXa assay % of FXa alone, 5 nM Ab, 10 nM TFPI [11]: 13.5% | FXa assay % of FXa alone, 10 nM Ab, 10 nM TFPI [11]: 48.5% | FXa assay % of FXa alone, 20 nM Ab, 10 nM TFPI [11]: 68% | FXa assay OD, 2.5 nM Ab, 10 nM TFPI [11]: 0.0505 | FXa assay OD, 5 nM Ab, 10 nM TFPI [11]: 0.11 | FXa assay OD, 10 nM Ab, 10 nM TFPI [11]: 0.394 | FXa assay OD, 20 nM Ab, 10 nM TFPI [11]: 0.552
